Data on 13 molecules can be found in paper PMC10786891, “Massively parallel profiling of RNA-targeting CRISPR-Cas13d”.

As a reminder, the Kd is the concentration at which binding is half-saturated. Read a low Kd as tighter binding.

T1: EsCas13d, nuclease-dead (Eubacterium siraeum, UniProt B0MS50, R295A;H300A;R849A;H854A)
T1 sequence: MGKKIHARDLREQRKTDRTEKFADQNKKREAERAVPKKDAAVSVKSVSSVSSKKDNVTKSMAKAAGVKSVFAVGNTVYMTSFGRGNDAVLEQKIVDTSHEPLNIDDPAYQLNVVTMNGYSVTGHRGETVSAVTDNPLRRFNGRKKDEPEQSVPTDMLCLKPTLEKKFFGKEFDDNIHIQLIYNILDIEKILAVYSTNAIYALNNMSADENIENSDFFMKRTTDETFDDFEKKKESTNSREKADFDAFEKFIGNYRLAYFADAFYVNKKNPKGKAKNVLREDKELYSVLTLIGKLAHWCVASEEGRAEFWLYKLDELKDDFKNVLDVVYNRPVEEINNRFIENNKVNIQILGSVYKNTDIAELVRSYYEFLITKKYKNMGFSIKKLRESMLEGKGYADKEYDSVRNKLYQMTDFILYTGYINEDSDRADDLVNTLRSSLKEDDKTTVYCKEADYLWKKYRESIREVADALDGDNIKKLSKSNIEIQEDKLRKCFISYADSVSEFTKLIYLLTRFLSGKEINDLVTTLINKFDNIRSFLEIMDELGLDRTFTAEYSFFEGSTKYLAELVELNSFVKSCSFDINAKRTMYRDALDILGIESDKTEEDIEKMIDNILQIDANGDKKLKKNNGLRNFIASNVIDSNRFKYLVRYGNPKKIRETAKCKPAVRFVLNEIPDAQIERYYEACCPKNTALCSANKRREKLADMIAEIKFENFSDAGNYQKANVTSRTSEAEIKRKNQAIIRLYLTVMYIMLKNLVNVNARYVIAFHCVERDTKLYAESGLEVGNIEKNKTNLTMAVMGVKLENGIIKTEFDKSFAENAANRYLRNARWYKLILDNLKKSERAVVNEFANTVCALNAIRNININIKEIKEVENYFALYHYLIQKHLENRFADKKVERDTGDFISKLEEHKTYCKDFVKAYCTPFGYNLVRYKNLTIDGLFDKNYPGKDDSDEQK

B1: target 1 insG 3' of 14,insU 3' of 1 (mixed)
RNA 1: CACCCGUGCAAAAAUGCAGGGGUCUAAAACUGAGCGGAUAACCUCUCUAUGG
RNA 2: GGGAAUGGAUCCACAUCUACGAAUUCGUACCAUAGAGAGGGUUAUCCGCUCAUCCGAGAUCGGAAGAGCACACGU
B2: target 1 insC 3' of 15,insA 3' of 3 (mixed)
RNA 1: CACCCGUGCAAAAAUGCAGGGGUCUAAAACUGAGCGGAUAACCUCUCUAUGG
RNA 2: GGGAAUGGAUCCACAUCUACGAAUUCGUACCAUAGAGCAGGUUAUCCGCUACACCGAGAUCGGAAGAGCACACGU
B3: target 1 insC 3' of 22,insC 3' of 22 (mixed)
RNA 1: CACCCGUGCAAAAAUGCAGGGGUCUAAAACUGAGCGGAUAACCUCUCUAUGG
RNA 2: GGGAAUGGAUCCACAUCUACGAAUUCGUACCCCAUAGAGAGGUUAUCCGCUCACCGAGAUCGGAAGAGCACACGU
B4: target 1 del11,del16 (mixed)
RNA 1: CACCCGUGCAAAAAUGCAGGGGUCUAAAACUGAGCGGAUAACCUCUCUAUGG
RNA 2: GGGAAUGGAUCCACAUCUACGAAUUCGUACCAUAGGAGGUAUCCGCUCACCGAGAUCGGAAGAGCACACGU
B5: target 1 insA 3' of 17,insA 3' of 17 (mixed)
RNA 1: CACCCGUGCAAAAAUGCAGGGGUCUAAAACUGAGCGGAUAACCUCUCUAUGG
RNA 2: GGGAAUGGAUCCACAUCUACGAAUUCGUACCAUAGAAAGAGGUUAUCCGCUCACCGAGAUCGGAAGAGCACACGU
B6: target 1 C2U,A16U (mixed)
RNA 1: CACCCGUGCAAAAAUGCAGGGGUCUAAAACUGAGCGGAUAACCUCUCUAUGG
RNA 2: GGGAAUGGAUCCACAUCUACGAAUUCGUACCAUAGUGAGGUUAUCCGCUUACCGAGAUCGGAAGAGCACACGU
B7: target 1 insG 3' of 11,insU 3' of 1 (mixed)
RNA 1: CACCCGUGCAAAAAUGCAGGGGUCUAAAACUGAGCGGAUAACCUCUCUAUGG
RNA 2: GGGAAUGGAUCCACAUCUACGAAUUCGUACCAUAGAGAGGUGUAUCCGCUCAUCCGAGAUCGGAAGAGCACACGU
B8: target 1 insC 3' of 15,insU 3' of 2 (mixed)
RNA 1: CACCCGUGCAAAAAUGCAGGGGUCUAAAACUGAGCGGAUAACCUCUCUAUGG
RNA 2: GGGAAUGGAUCCACAUCUACGAAUUCGUACCAUAGAGCAGGUUAUCCGCUCUACCGAGAUCGGAAGAGCACACGU
B9: target 1 insC 3' of 15,insU 3' of 4 (mixed)
RNA 1: CACCCGUGCAAAAAUGCAGGGGUCUAAAACUGAGCGGAUAACCUCUCUAUGG
RNA 2: GGGAAUGGAUCCACAUCUACGAAUUCGUACCAUAGAGCAGGUUAUCCGCUUCACCGAGAUCGGAAGAGCACACGU
B10: target 1 insC 3' of 19,insG 3' of 19 (mixed)
RNA 1: CACCCGUGCAAAAAUGCAGGGGUCUAAAACUGAGCGGAUAACCUCUCUAUGG
RNA 2: GGGAAUGGAUCCACAUCUACGAAUUCGUACCAUCGAGAGAGGUUAUCCGCUCACCGAGAUCGGAAGAGCACACGU
B11: target 1 del1,del2 (mixed)
RNA 1: CACCCGUGCAAAAAUGCAGGGGUCUAAAACUGAGCGGAUAACCUCUCUAUGG
RNA 2: GGGAAUGGAUCCACAUCUACGAAUUCGUACCAUAGAGAGGUUAUCCGCUCCGAGAUCGGAAGAGCACACGU
B12: target 1 C4G,C6A (mixed)
RNA 1: CACCCGUGCAAAAAUGCAGGGGUCUAAAACUGAGCGGAUAACCUCUCUAUGG
RNA 2: GGGAAUGGAUCCACAUCUACGAAUUCGUACCAUAGAGAGGUUAUCAGGUCACCGAGAUCGGAAGAGCACACGU
B13: target 1 insG 3' of 21,insU 3' of 12 (mixed)
RNA 1: CACCCGUGCAAAAAUGCAGGGGUCUAAAACUGAGCGGAUAACCUCUCUAUGG
RNA 2: GGGAAUGGAUCCACAUCUACGAAUUCGUACCGAUAGAGAGGUUUAUCCGCUCACCGAGAUCGGAAGAGCACACGU

The target of this series is T1, EsCas13d, nuclease-dead. The series can be described thus: crRNA (strand 1, pre-loaded); Mg2+; 40 mM Tris-HCl pH 7.5, 150 mM NaCl, 6 mM MgCl2, 1 mM DTT, 0.1% Tween-20, 0.2 mg/ml BSA; 25 C; 10 min per concentration, then washed. The conditions noted are these: tags: His6-TwinStrep-SUMO cleaved; N-terminal SNAP kept (SNAP-Surface 488); label: 3' end held by stalled T7 RNA polymerase.
In turn, B1 came in with a Kd of 12.3 ± 1.2 nM. B2 registered a Kd of 13 ± 0.8 nM. In the case of B3 it was 17.4 ± 0.7 nM; in that of B4, 68 ± 11 nM; in that of B5, 10.8 ± 0.6 nM.

For the molecule B6, the Kd worked out at 56 ± 11 nM. In the case of B7 it was 56 ± 10 nM; in that of B8, 20.5 ± 1.8 nM; in that of B9, 14.3 ± 0.6 nM.

B10 gave a Kd of 73 ± 6 nM.

B11 yielded a Kd of 15.6 ± 0.9 nM.

Molecule B12 yielded a Kd of 6.7 ± 0.4 nM. Molecule B13 displayed a dissociation constant (Kd) of 64 ± 13 nM.
